Data taken from IntAct's records for PubMed 12730685.

Biological target: mgn_human MAGOH (UniProt P61326)

effect of a mutation on the interaction: decreasing interaction
Substance: RNA-binding protein 8A (Homo sapiens) (from UniProt Q9Y5S9) L118R
